Test results taken from US11433099B2, “Immunotherapy with B*08 restricted peptides and combination of peptides against cancers and related methods” (Immatics Biotechnologies GmbH, priority 2018, dated 2022).

target: HLA-B*08:01 (Homo sapiens, UniProt P01889); test: MHC binding assay (UV-ligand exchange, beta2m ELISA); conditions: MHC class I binding score; binding to HLA-B*08:01 ranged by peptide exchange yield (UV-ligand exchange, β2m ELISA)
From the text: Candidate peptides for T cell based therapies according to the present invention were further tested for their MHC binding capacity (affinity). The individual peptide-MHC complexes were produced by UV-ligand exchange, where a UV-sensitive peptide is cleaved upon UV-irradiation and exchanged with the peptide of interest as analyzed. Only peptide candidates that can effectively bind and stabilize the peptide-receptive MHC molecules prevent dissociation of the MHC complexes. To determine the yield of the exchange reaction, an ELISA was performed based on the detection of the light chain (β2m) of stabilized MHC complexes. The assay was performed as generally described in Rodenko et al. (Rodenko et al., 2006).
96 well MAXISorp plates (NUNC) were coated over night with 2 ug/ml streptavidin in PBS at room temperature, washed 4× and blocked for 1 h at 37° C. in 2% BSA containing blocking buffer. Refolded HLA-A*02:01/MLA-001 monomers served as standards, covering the range of 15-500 ng/ml. Peptide-MHC monomers of the UV-exchange reaction were diluted 100-fold in blocking buffer. Samples were incubated for 1 h at 37° C., washed four times, incubated with 2 ug/ml HRP conjugated anti-β2m for 1 h at 37° C., washed again and detected with TMB solution that is stopped with […]. Absorption was measured at 450 nm. Candidate peptides that show a high exchange yield (preferably higher than 50%, most preferred higher than 75%) are generally preferred for a generation and production of antibodies or fragments thereof, and/or T cell receptors or fragments thereof, as they show sufficient avidity to the MHC molecules and prevent dissociation of the MHC complexes.

Substance | Peptide exchange
125 (FPLVTPLL; listed as Homo sapiens) [compound 125] | +++ (50% = +++)
126 (TAAEARLSL; listed as Homo sapiens) [compound 126] | ++ (20% = ++)
127 (EPVIRTVSI; listed as Homo sapiens) [compound 127] | +++ (50% = +++)
128 (HFHNRHVF; listed as Homo sapiens) [compound 128] | +++ (50% = +++)
129 (HRILRLPAL; listed as Homo sapiens) [compound 129] | +++ (50% = +++)
130 (LPAPYQHQL; listed as Homo sapiens) [compound 130] | ++ (20% = ++)
131 (MSTKTTSI; listed as Homo sapiens) [compound 131] | ++ (20% = ++)
132 (IPIQAHQI; listed as Homo sapiens) [compound 132] | +++ (50% = +++)
133 (QATPRVRIL; listed as Homo sapiens) [compound 133] | ++ (20% = ++)
134 (DQRSRATL; listed as Homo sapiens) [compound 134] | ++ (20% = ++)
135 (EYLETKRLAF; listed as Homo sapiens) [compound 135] | + (0% = +)
136 (KMFYRKDVM; listed as Homo sapiens) [compound 136] | +++ (50% = +++)
137 (VQWKPPAL; listed as Homo sapiens) [compound 137] | ++ (20% = ++)
138 (TQHLTVATL; listed as Homo sapiens) [compound 138] | +++ (50% = +++)
139 (YGRIGISLF; listed as Homo sapiens) [compound 139] | ++ (20% = ++)
140 (IAVDKPITL; listed as Homo sapiens) [compound 140] | ++ (20% = ++)
141 (AQLKLVAL; listed as Homo sapiens) [compound 141] | ++ (20% = ++)
142 (YNLIYSMCL; listed as Homo sapiens) [compound 142] | +++ (50% = +++)
143 (DADLREQAL; listed as Homo sapiens) [compound 143] | ++ (20% = ++)
144 (IEQIRAVL; listed as Homo sapiens) [compound 144] | ++ (20% = ++)
145 (MIYRKALRL; listed as Homo sapiens) [compound 145] | ++ (20% = ++)
146 (FQTAHFYL; listed as Homo sapiens) [compound 146] | +++ (50% = +++)

Substance | Peptide exchange
147 (HAMDGASHL; listed as Homo sapiens) [compound 147] | ++ (20% = ++)
148 (DVNPVSLQL; listed as Homo sapiens) [compound 148] | ++ (20% = ++)
149 (TQKSVQVL; listed as Homo sapiens) [compound 149] | ++ (20% = ++)
150 (MRSSYIREL; listed as Homo sapiens) [compound 150] | ++ (20% = ++)
151 (DRHLTNRVL; listed as Homo sapiens) [compound 151] | ++ (20% = ++)
152 (FNKLVTEL; listed as Homo sapiens) [compound 152] | ++ (20% = ++)
153 (HAIPHYVTM; listed as Homo sapiens) [compound 153] | ++ (20% = ++)
154 (VLKTLQEL; listed as Homo sapiens) [compound 154] | ++ (20% = ++)
155 (LPASFPAVL; listed as Homo sapiens) [compound 155] | ++ (20% = ++)
156 (ILKEQSSSSF; listed as Homo sapiens) [compound 156] | ++ (20% = ++)
157 (QPYRFPQA; listed as Homo sapiens) [compound 157] | ++ (20% = ++)
158 (DVIIKGNGL; listed as Homo sapiens) [compound 158] | ++ (20% = ++)
159 (DLRNKIIA; listed as Homo sapiens) [compound 159] | ++ (20% = ++)
160 (LPINNTHI; listed as Homo sapiens) [compound 160] | ++ (20% = ++)
161 (DIVPPFSAF; listed as Homo sapiens) [compound 161] | ++ (20% = ++)
162 (LFKQTKINL; listed as Homo sapiens) [compound 162] | ++ (20% = ++)
163 (EVMAQFKEI; listed as Homo sapiens) [compound 163] | ++ (20% = ++)
164 (LPAPIPTLL; listed as Homo sapiens) [compound 164] | ++ (20% = ++)
165 (QNSLRHNL; listed as Homo sapiens) [compound 165] | ++ (20% = ++)
166 (VLSGGRILAL; listed as Homo sapiens) [compound 166] | ++ (20% = ++)
167 (DMKITVSL; listed as Homo sapiens) [compound 167] | +++ (50% = +++)
168 (HVQDFTAF; listed as Homo sapiens) [compound 168] | ++ (20% = ++)

Next, values leading:

Peptide exchange | Substance
++ (20% = ++) | 169 (YELNNLHAL; listed as Homo sapiens) [compound 169]
++ (20% = ++) | 170 (SPANVRGQSL; listed as Homo sapiens) [compound 170]
++ (20% = ++) | 171 (FPSQVPKQVL; listed as Homo sapiens) [compound 171]
++ (20% = ++) | 172 (PYEKVSRL; listed as Homo sapiens) [compound 172]
+++ (50% = +++) | 173 (YPLLKDPSL; listed as Homo sapiens) [compound 173]
++ (20% = ++) | 174 (HAMPSPRIL; listed as Homo sapiens) [compound 174]
+ (0% = +) | 175 (MRFQQFLFA; listed as Homo sapiens) [compound 175]
++ (20% = ++) | 176 (YVIQRQSVL; listed as Homo sapiens) [compound 176]
++ (20% = ++) | 177 (SVPVRSSPL; listed as Homo sapiens) [compound 177]
++ (20% = ++) | 178 (IPRLAVISI; listed as Homo sapiens) [compound 178]
+++ (50% = +++) | 179 (LPLTEHEL; listed as Homo sapiens) [compound 179]
++ (20% = ++) | 180 (LAVPIFVAL; listed as Homo sapiens) [compound 180]
++ (20% = ++) | 181 (SIRSSYSRF; listed as Homo sapiens) [compound 181]
++++ (75% = ++++) | 182 (ILHLSAIAL; listed as Homo sapiens) [compound 182]
++ (20% = ++) | 183 (YVSKPGAQL; listed as Homo sapiens) [compound 183]
++ (20% = ++) | 184 (DRLKPLKM; listed as Homo sapiens) [compound 184]

Peptide exchange | Substance
++ (20% = ++) | 185 (MELKTVKPI; listed as Homo sapiens) [compound 185]
++ (20% = ++) | 186 (DLISPRQPRL; listed as Homo sapiens) [compound 186]
++ (20% = ++) | 187 (VPYNSVLF; listed as Homo sapiens) [compound 187]
++ (20% = ++) | 188 (EIMEKTTL; listed as Homo sapiens) [compound 188]
++ (20% = ++) | 189 (APDNVLLTL; listed as Homo sapiens) [compound 189]
++ (20% = ++) | 190 (ELLNRIYF; listed as Homo sapiens) [compound 190]
++ (20% = ++) | 191 (RPLKPGEVL; listed as Homo sapiens) [compound 191]
++ (20% = ++) | 192 (EEKHFTTL; listed as Homo sapiens) [compound 192]
++ (20% = ++) | 193 (LGGLRLTAL; listed as Homo sapiens) [compound 193]
+++ (50% = +++) | 194 (RAIEHVLQV; listed as Homo sapiens) [compound 194]
++ (20% = ++) | 195 (EGNQKSVI; listed as Homo sapiens) [compound 195]
++ (20% = ++) | 196 (LDLRQKVL; listed as Homo sapiens) [compound 196]
++ (20% = ++) | 197 (YKAYPSQL; listed as Homo sapiens) [compound 197]
+++ (50% = +++) | 198 (FPLTSIIAI; listed as Homo sapiens) [compound 198]
++ (20% = ++) | 199 (IPFIHLPEI; listed as Homo sapiens) [compound 199]
